According to patent publication KR20240034954A (dated 2024):

Tests used:
[1] = target: T1, 서열번호 2의 아미노산 서열을 포함하는 SIRPα 변이체 (Homo sapiens (Human), UniProt P78324 31-149); assay: indirect ELISA, vSIRPα (SEQ ID NO 2) coated at 1.0 ug/ml, anti-mouse IgG Fcγ-peroxidase secondary
T1 construct: Engineered SIRPα variant; also called vSIRPα; vSIRPα antigen
T1 chain: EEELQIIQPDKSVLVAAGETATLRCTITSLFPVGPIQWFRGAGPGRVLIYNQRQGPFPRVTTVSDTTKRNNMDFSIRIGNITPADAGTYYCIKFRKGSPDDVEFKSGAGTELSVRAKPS

야생형의 SIRPα = target: T2, 야생형의 SIRPα (Homo sapiens (Human), UniProt P78324 31-149, limits assumed); assay: western blot
T2 construct: also called wtSIRPα; wild-type SIRPα

B1: 항-vSIRPα 단일클론 항체 (SIRPα 변이체 특이적인 단일클론 항체) (antibody, V domains shown)
VH: EVQLQQSGPELVKPGASVKISCKASGYSFTGYYMHWVKQSHVKSLEWIGRINPYNGATNYNQNFKDKASLTLDKSSSTAYVELHSLTSEDSAVYYCTRNDGYYWYFDVWGAGTTVTVSS
VL: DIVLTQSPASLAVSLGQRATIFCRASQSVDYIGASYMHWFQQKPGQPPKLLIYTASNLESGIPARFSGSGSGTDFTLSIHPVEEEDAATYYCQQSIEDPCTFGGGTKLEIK
notes: Two clones were selected; also called 제작된 2종 항체; 개발한 항체 2종
binding result [1]: binds
binding result (야생형의 SIRPα): no binding
